Assay [1] addresses Human polyclonal immunoglobulin G (IgG), lyophilized, Equitech-Bio, Inc. (human). Put plainly: affinity chromatography, yield = IgG eluted / IgG loaded; cycle 2, after phosphoric acid regeneration, before any NaOH wash.
The target is the same in assay [2]. In words: affinity chromatography, yield = IgG eluted / IgG loaded; cycle 5, after three 0.1 M NaOH washes.
The target is the same in assay [3]. In words: affinity chromatography, yield = IgG eluted / IgG loaded; cycle 4, after two 0.1 M NaOH washes.
The target is the same in assay [4]. Put plainly: affinity chromatography, IgG 10 mg/mL in cMEM loaded on 0.1 mL column, eluted with 0.2 M acetate pH 4; yield = IgG eluted / IgG loaded (Protein G HPLC); cycle 1, before any NaOH wash.
Assay [5] shares this target. In words: affinity chromatography, yield = IgG eluted / IgG loaded; cycle 3, after the first 0.1 M NaOH wash (ligand partly leached).
Assay [6] has the same target. Put plainly: affinity chromatography of IgG from cMEM, yield = IgG eluted / IgG loaded; cycle 25, 24 washes with 0.1 M NaOH.
Assay [7] has the same target. Put plainly: affinity chromatography of IgG from cMEM, yield = IgG eluted / IgG loaded; cycle 20, 19 washes with 1 M NaOH.
For assay [8] the target is unchanged. Put plainly: affinity chromatography of IgG from cMEM, yield = IgG eluted / IgG loaded; cycle 30, 29 washes with 1 M NaOH.
The target is the same in assay [9]. In words: affinity chromatography of IgG from cMEM, yield = IgG eluted / IgG loaded; cycle 100, 99 washes with 0.1 M NaOH.
For assay [10] the target is unchanged. In words: affinity chromatography of IgG from cMEM, yield = IgG eluted / IgG loaded; cycle 1, 0 washes with 1 M NaOH.
For assay [11] the target is unchanged. Put plainly: affinity chromatography of IgG from cMEM, yield = IgG eluted / IgG loaded; cycle 200, 199 washes with 0.1 M NaOH.
Assay [12] shares this target. Put plainly: affinity chromatography of IgG from cMEM, yield = IgG eluted / IgG loaded; cycle 1, 0 washes with 0.5 M NaOH.
Assay [13] has the same target. In words: affinity chromatography of IgG from cMEM, yield = IgG eluted / IgG loaded; cycle 25, 24 washes with 0.5 M NaOH.
The target is the same in assay [14]. In words: affinity chromatography of IgG from cMEM, yield = IgG eluted / IgG loaded; cycle 75, 74 washes with 0.5 M NaOH.
Assay [15] has the same target. Put plainly: affinity chromatography of IgG from cMEM, yield = IgG eluted / IgG loaded; cycle 50, 49 washes with 0.1 M NaOH.
The target is the same in assay [16]. In words: affinity chromatography of IgG from cMEM, yield = IgG eluted / IgG loaded; cycle 50, 49 washes with 1 M NaOH.
Assay [17] shares this target. Put plainly: affinity chromatography of IgG from cMEM, yield = IgG eluted / IgG loaded; cycle 1, 0 washes with 0.1 M NaOH.
Assay [18] shares this target. Put plainly: affinity chromatography of IgG from cMEM, yield = IgG eluted / IgG loaded; cycle 100, 99 washes with 0.5 M NaOH.
Assay [19] has the same target. In words: affinity chromatography of IgG from cMEM, yield = IgG eluted / IgG loaded; cycle 50, 49 washes with 0.5 M NaOH.
Assay [20] shares this target. In words: affinity chromatography of IgG from cMEM, yield = IgG eluted / IgG loaded; cycle 10, 9 washes with 1 M NaOH.

No end group written: not given here. modified Toyopearl AF‑Amino‑650M resin = not defined here

In the case of HWRGWV-{Toyopearl AF‑Amino‑650M resin} (also: coupled partly by amide, partly by ester bonds), the IgG yield in assay [1] came to 85%; in assay [2] it was 21%; in assay [3], 21%; in assay [4], 85%; in assay [5], 23%.
As to HWRGWVA-{modified Toyopearl AF‑Amino‑650M resin} (reading uncertain) [HWRGWV (SEQ ID NO: 1) synthesized on modified Toyopearl AF-Amino-650M resin (density 0.11 meq/g)], the IgG yield came out at 90% in assay [6]; 82% in assay [7]; 79% in [8]; 87% in assay [9]; 88% in [10]; 85% in [11]. For the same molecule, the IgG yield in [12] was 89%; in assay [13] it was 87%; in assay [14], 82%; in assay [15], 88%; in [16], 76%; in assay [17], 91%. Further, the IgG yield in assay [18] worked out at 80%; in assay [19], 85%; in assay [20], 84%.

(Values after patent publication US20130165539A1.)
